What all share (test): EMSA
In general terms: Mobility shift assays separate free from complexed probe on a gel.

Series [1] deals with T1, OGG1 WT (untagged) (human, UniProt O15527 1-345).
The target of the next series is OGG1-Y203A (untagged) (human, UniProt O15527 1-345, Y203A).
The target in series [2] is T2, OGG1-2NA (untagged) (human, UniProt O15527 1-345, N149A;N150A).
For another series, the target named is GST-OGG1-G245A (human, UniProt O15527 1-345, G245A).
Series [3] concerns the target T1, OGG1 WT (untagged). The source holds these as a separate data set.
The target in series [4] is T2, OGG1-2NA (untagged). The source holds these as a separate data set.

Usually Kd stands for a measure of binding affinity in units of concentration.

Read-outs that look alike come from different tables or passages of the source.

Sequence of GST-OGG1-G245A (O15527 whole entry G245A): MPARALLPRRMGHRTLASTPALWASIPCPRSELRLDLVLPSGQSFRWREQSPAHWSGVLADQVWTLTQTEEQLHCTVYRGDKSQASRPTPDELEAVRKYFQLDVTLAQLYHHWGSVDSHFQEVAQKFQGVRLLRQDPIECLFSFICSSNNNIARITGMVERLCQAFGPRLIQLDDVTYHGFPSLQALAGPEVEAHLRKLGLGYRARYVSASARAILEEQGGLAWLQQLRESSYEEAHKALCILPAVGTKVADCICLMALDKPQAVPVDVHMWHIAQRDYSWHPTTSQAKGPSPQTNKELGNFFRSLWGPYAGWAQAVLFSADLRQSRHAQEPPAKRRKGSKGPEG
T1 sequence (O15527 whole entry): as the sequence (O15527 whole entry G245A) above, with A245G counted along it
T2 sequence (O15527 whole entry N149A/N150A): as the sequence (O15527 whole entry G245A) above, with N149A, N150A, A245G counted along it
Sequence of OGG1-Y203A (untagged) (O15527 whole entry Y203A): as the sequence (O15527 whole entry G245A) above, with Y203A, A245G counted along it

B1: 24-mer G:C duplex (dsDNA)
DNA 1: CTGATCGATGACGCCTGACATGAT
DNA 2: ATCATGTCAGGCGTCATCGATCAG
For the molecule B1, the Kd was 2220 ± 220 nM with OGG1 WT (untagged) [1], 1970 ± 270 nM with OGG1-Y203A (untagged) and 602 ± 42 nM in the series with OGG1-2NA (untagged) [2].

B2: Cy5 34-mer 8-oxoG:C duplex (dsDNA)
DNA 1: GGCTTCATCGTTGTCGCAGACCTGGTGGATACCG
DNA 2: CGGTATCCACCAGGTCTGCGACAACGATGAAGCC
modifications: 8-oxoG at position 16 of strand 1 (opposite C)
On to B2, for which the binding result with GST-OGG1-G245A is given as “no binding”.

B3: Cy5 34-mer G:C duplex (dsDNA)
DNA 1: GGCTTCATCGTTGTCGCAGACCTGGTGGATACCG
DNA 2: CGGTATCCACCAGGTCTGCGACAACGATGAAGCC
In the case of B3, the binding result with GST-OGG1-G245A is listed as “no binding”.

B4: 24-mer 8-oxoG:C duplex (dsDNA)
DNA 1: CTGATCGATGACGCCTGACATGAT
DNA 2: ATCATGTCAGGCGTCATCGATCAG
modifications: 8-oxoG at position 13 of strand 1 (opposite C)
For B4, the dissociation constant Kd was determined as 0.42 ± 0.03 nM in the series with OGG1 WT (untagged) [3] and 6.37 ± 0.58 nM with OGG1-2NA (untagged) [4].

These data come from article PMC10250219.
